Assay results: publication PMC6224593

What was measured:
[1] = biological target: ComR of Streptococcus mutans UA159 (Streptococcus mutans UA159); test: ITC; XIP 600 μM injected into ComR 20 μM; 20 mM Tris pH 7.5, 100 mM NaCl, 1 mM β-ME with matched DMSO; VP-ITC, 25 °C; one-site model
[2] = biological target: ComR of Streptococcus mutans UA159 (Streptococcus mutans UA159); test: ITC; paratox 240 μM injected into ComR 20 μM; 20 mM Tris pH 7.5, 100 mM NaCl, 1 mM β-ME; VP-ITC, 25 °C; one-site model
[3] = biological target: ComR of Streptococcus mutans UA159 (Streptococcus mutans UA159)

## XIP (sigX-inducing peptide) of Streptococcus mutans UA159
[1]
  Kd: 3600 nM
  stoichiometry N: 1.01

## paratox (Prx) of Streptococcus pyogenes MGAS315 (from UniProt Q4VUT1 1-60) (natural protein)
[2]
  Kd: 133 nM
  stoichiometry N: 0.95
[3]
  PsigX-luxAB reporter in S. mutans with MGAS315 prx in trans, 200 nM XIP, against the empty vector: > 2 fold

## paratox of Streptococcus pyogenes MGAS5005, prophage MGAS5005.3 (prx3) (from UniProt Q4VUT1 1-60) (natural protein)
[3]
  PsigX-luxAB reporter in S. mutans with MGAS5005 prx3 in trans, 200 nM XIP, against the empty vector: > 2 fold

## paratox of Streptococcus pyogenes MGAS8232 (from UniProt Q4VUT1 1-60) (natural protein)
[3]
  PsigX-luxAB reporter in S. mutans with MGAS8232 prx in trans, 200 nM XIP, against the empty vector: > 2 fold
